Measured values taken from US6399759B1, “Ant proteases and methods of inhibition” (University of Georgia Research Foundation, Inc., priority 1999, dated 2002).

How the values were obtained:
Assay in all cases: Inhibition of amidolytic activity by naturally occurring protease inhibitors
Details in all cases: 10 minutes incubation at 25° C. in 50 mM Tris-HCl, 100 mM NaCl, pH 7.4
Soli C1 = biological target: T1, Soli C1 (Solenopsis invicta, UniProt Q7SIG2); format: biochemical
T1 construct: Fourth instar larvae were extracted in a 1:10 (weight/volume) ratio of 20 mM Tris-HCl pH 7.4; from tissue; host or cells: whole Solenopsis invicta 4th instar larvae (buffer extract, acetone precipitation, Q Sepharose peak III, Mono Q, Superdex 75)
T1 sequence (Q7SIG2 whole entry): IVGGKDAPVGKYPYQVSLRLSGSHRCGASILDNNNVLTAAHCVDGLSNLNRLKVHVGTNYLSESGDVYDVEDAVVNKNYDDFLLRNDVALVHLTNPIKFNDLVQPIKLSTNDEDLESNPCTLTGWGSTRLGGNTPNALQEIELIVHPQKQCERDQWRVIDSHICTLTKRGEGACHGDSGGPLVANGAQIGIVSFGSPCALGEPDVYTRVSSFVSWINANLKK
Description: (§1) Enzyme Assay—Generally, the amidolytic activities of each proteinase were measured with the substrates MeOSuc-Ala-Ala-Pro-Val-pNA (SEQ ID NO:8) and N-Suc-Ala-Ala-Pro-Phe-pNA (SEQ ID NO:7) in 0.05 M Tris-HCl and 100 mM NaCl pH 7.4 (assay buffer). Release of the pNA group was assayed by monitoring the optical density of the test solution at […]. Enzyme inhibition assays by protein inhibitors were conducted in the same assay buffer using an inhibitor concentration ranging from 0.02-50 nM with a 10 minute preincubation time and with the final enzyme concentration being 1.0 nM. All kinetic studies with substrates and inhibitors were performed at the optimum pH of the individual proteinases, utilizing the following buffers: 150 mM NaCl, 50 mM Tris-HCl pH 8.0 (E1); 150 mM NaCl, 50 mM CHES pH 9.5 (E2 and C2); and 150 mM NaCl, 50 mM CAPS pH 10.0 (C1).

Soli E1 = format: biochemical, Solenopsis invicta
Description: as §1

Soli C2 = format: biochemical, Solenopsis invicta
Description: as §1

Soli E2 = format: biochemical, Solenopsis invicta
Description: as §1

Molecule	IC50 (Soli C1) [nM]	IC50 (Soli E1) [nM]	IC50 (Soli C2) [nM]	IC50 (Soli E2) [nM]	IC50 Soli C1 (Soli C1)	IC50 Soli C2 (Soli C2)
Eglin C: naturally occurring protease inhibitor obtained from Ciba Geigy (protein) TEFGSELKSFPEVVGKTVDQAREYFTLHYPQYDVYFLPEGSPVTLDLRYNRVRVFYNPGTNVVNHVPHVG	1.24	3.93	0.442	1.89	–	–
Lima Bean Trypsin Inhibitor: lima bean trypsin inhibitor from Sigma (protein, not fully specified) SGHHEHSTDXPSXSSKPCCXHCACTKSIPPQCRCTDLRLDSCHSACKSCICTLSIPAQCVCXXIXDFCYEPCKSSHSDDDNNN	–	–	–	–	active	active
Soy Bean Trypsin Inhibitor I-S: soybean trypsin inhibitor Type I-S from Sigma (protein) DFVLDNEGNPLENGGTYYILSDITAFGGIRAAPTGNERCPLTVVQSRNELDKGIGTIISSPYRIRFIAEGHPLSLKFDSFAVIMLCVGIPTEWSVVEDLPEGPAVKIGENKDAMDGWFRLERVSDDEFNNYKLVFCPQQAEDDKCGDIGISIDHDDGTRRLVVSKNKPLVVQFQKLDKESL	37	4.22	1.41	5.58	–	–
